Measurements published in publication PMC4361550, “Biophysical Analysis of Anopheles gambiae Leucine-Rich Repeat Proteins APL1A^1, APL1B and APL1C and Their Interaction with LRIM1” (PLoS ONE, 2015).

Molecular target: the molecule itself
Experiment: SEC; Superdex 75 (10/300), proteins at 1 mg/ml, 100 mM NaCl, 20 mM HEPES pH 7.5; apparent molecular weight against mass standards

B1: APL1B LRR domain (APL1B-LRR) (domain or fragment, Anopheles gambiae, UniProt A7URS4 21-370, looked up)
chain: GQLSYKSMHLTPFTLSALLASFHKVEVLNLNGLQIEEIDTNAFAYAHTIQKLYMRFNVIRYLPPHVFQNVPLLTVLMLDRNDLSSLPPGIFHNTPKLTMLSMSNNNLERIEDDTFQATTSLQNLQLSSNRLTHVDLALIPSLFHVNVSYNLLSTLAIPIAVEELDASHNSINVVRGPVNVELTILKLQHNNLTDTAWLLNYPGLTDVDLSYNQLEIITIHHFVTMQRLERLHVSNNRLVAFDLYGRPIPTLKVLDLSHNHLMWVEHNQAQFDKLQYLYLDHNSIVTLKLSTSHTIKNLTLSHNDWDCNSLRALFRNVARPVVDDADQYCKIDYHLEHGLCCKESDKPYLD
modifications: N-linked glycosylation (predicted at Asn166, Asn211, Asn317; N-acetylglucosamine resolved at Asn166)
notes: APL1B of Anopheles gambiae, allele from strain G3, LRR domain; cloned as residues 1-370 with its signal peptide; the crystallized protein comprises APL1B 21-370 and a C-terminal 6xHis tag; Model in PDB 4XGO holds residues 25-364 (chain A) and 27-364 (chain B); source: T. ni cells (baculovirus, Bac-to-Bac), purified (Talon, MonoS, SEC); not shown: 6xHis, C-terminal, kept
With B1 the “stoichiometry N” value was 2.
